According to patent US20150056301A1 (CANBAS, published 2015):
Where no end group is shown, it is not given here. [ ]: non-standard residue; d: D form. dPhe(4-NO2) = N[C@H](Cc1ccc([N+](=O)[O-])cc1)C(=O)O; dPhe(F5) = N[C@H](Cc1c(F)c(F)c(F)c(F)c1F)C(=O)O; dBpa = N[C@H](Cc1ccc(C(=O)c2ccccc2)cc1)C(=O)O; dCha = N[C@H](CC1CCCCC1)C(=O)O

T1: baculovirus derived recombinant human full length Chk1 with histidine tag (human, UniProt O14757 1-476)
T1 sequence: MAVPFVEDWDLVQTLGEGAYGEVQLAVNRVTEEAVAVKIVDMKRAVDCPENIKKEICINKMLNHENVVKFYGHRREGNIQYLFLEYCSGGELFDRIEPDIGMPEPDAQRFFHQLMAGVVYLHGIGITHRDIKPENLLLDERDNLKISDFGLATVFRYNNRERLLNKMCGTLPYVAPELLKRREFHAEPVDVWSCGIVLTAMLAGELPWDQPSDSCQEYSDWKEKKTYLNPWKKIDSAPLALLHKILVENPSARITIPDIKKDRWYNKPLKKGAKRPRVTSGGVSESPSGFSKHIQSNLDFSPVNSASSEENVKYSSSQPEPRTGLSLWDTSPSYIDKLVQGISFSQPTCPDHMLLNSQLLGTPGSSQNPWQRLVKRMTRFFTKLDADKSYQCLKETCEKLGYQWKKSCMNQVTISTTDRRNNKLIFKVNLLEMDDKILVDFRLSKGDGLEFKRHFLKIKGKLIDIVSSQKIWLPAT

B1: CBP440 (peptide)
peptide: YGRKKRRQRRRXFXYY
modifications: (l-Tyr)(l-Gly)(l-Arg)(l-Lys)(l-Lys)(l-Arg)(l-Arg)(l-Gln)(l-Arg)(l-Arg)(l-Arg)(l-Cha)(l-Phe-2,3,4,5,6-F)(l-aminoundecanoic acid)(l-Tyr)(l-Tyr): position 12 cyclohexyl-alanine; position 13 pentafluoro-phenylalanine; position 14 aminoundecanoic acid

Legend:
Experiment in all cases: cell-based or functional assay
[1] = target: purified CHK2 kinase (UniProt O96017 1-543)
[2] = target: PKA
[3] = target: T1, baculovirus derived recombinant human …
[4] = target: E. Coli derived recombinant human full length Chk2 fused with GST (human, UniProt O96017 1-543)
E. Coli derived recombinant human full length Chk2 fused with GST, sequence (O96017 whole entry, the tested form may be a part): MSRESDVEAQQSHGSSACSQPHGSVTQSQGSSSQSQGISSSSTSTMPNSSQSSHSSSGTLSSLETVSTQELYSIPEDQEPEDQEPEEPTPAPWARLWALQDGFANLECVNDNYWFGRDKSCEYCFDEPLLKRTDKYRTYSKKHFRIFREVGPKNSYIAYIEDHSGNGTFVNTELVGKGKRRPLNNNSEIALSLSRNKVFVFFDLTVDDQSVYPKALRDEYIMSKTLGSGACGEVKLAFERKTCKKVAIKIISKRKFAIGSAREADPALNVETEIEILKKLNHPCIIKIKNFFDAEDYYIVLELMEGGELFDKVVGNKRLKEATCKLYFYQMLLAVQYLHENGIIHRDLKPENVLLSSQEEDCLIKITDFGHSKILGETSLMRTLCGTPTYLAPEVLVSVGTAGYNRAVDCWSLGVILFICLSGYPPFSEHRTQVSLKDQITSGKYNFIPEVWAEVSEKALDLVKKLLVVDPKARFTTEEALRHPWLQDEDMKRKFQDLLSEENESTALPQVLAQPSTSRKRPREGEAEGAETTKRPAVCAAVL

purified CHK2 kinase, sequence (O96017 whole entry): as the sequence (O96017 whole entry, the tested form may be a part) above

Binder	IC50 in µM, kinase inhibition analysis (PepTag Non-Radioactive Protein Kinase Assay) [1] [µM]	IC50 in µM, kinase inhibition analysis (PepTag Non-Radioactive Protein Kinase Assay) [2] [µM]	Kinase inhibition analysis of peptides (phosphorylation of serine 216 on GST-Cdc25C 167-267, enzyme linked immune assay) [3]	Kinase inhibition analysis of peptides (phosphorylation of serine 216 on GST-Cdc25C 167-267, enzyme linked immune assay) [4]
[dY][dY][dS]G[dS][dR][dPhe(F5)][dCha][dR][dR][dR][dQ][dR][dR][dK][dK][dR]G[dY] [CBP450]	10	> 400		
[dBpa][dD][dS][dW][dS][dPhe(F5)][dCha][dR][dR][dR][dQ][dR][dR] (also: cyclised or stapled (no detail)) [CBP505]			63.4	> 100
[dBpa][dS][dW][dS][dPhe(4-NO2)][dCha][dR][dR][dR][dQ][dR][dR] (also: cyclised or stapled (no detail)) [CBP603]			15.5	18.1
B1	8	180		
[dY][dBpa][dS][dW][dS][dPhe(F5)][dCha][dR][dR][dR][dQ][dR][dR] [CBP500]			5.6	8
[dBpa][dS][dW][dS][dPhe(F5)][dCha][dR][dR][dR][dQ][dR][dR] [CBP501]			7.9	18.6
